Experimental data as given in US20250066422A1.
One block for each binder: values may come before it.

Assays:
Assay in all cases: ProImmune REVEAL MHC-peptide binding assay
HLA-DR1 (human) = biological target: HLA-DR1 (human)
HLA-DR4 (human) = biological target: HLA-DR4 (human)
HLA-DR5 (human) = biological target: HLA-DR5 (human)
HLA-DR7 (human) = biological target: HLA-DR7 (human)
HLA-DR2 (human) = biological target: HLA-DR2 (human)

Relative Binding Score (% of positive control) (HLA-DR1 (human)): 40.1
Relative Binding Score (% of positive control) (HLA-DR4 (human)): 6.12
Relative Binding Score (% of positive control) (HLA-DR5 (human)): 104
Relative Binding Score (% of positive control) (HLA-DR7 (human)): 0.27
Relative Binding Score (% of positive control) (HLA-DR2 (human)): 0.05
B1: BIR-002 (peptide, from a related filing)
peptide: TLGEFLKLDRERAKN

Relative Binding Score (% of positive control) (HLA-DR1 (human)): 0.87
Relative Binding Score (% of positive control) (HLA-DR4 (human)): 5.89
Relative Binding Score (% of positive control) (HLA-DR5 (human)): 0.12
Relative Binding Score (% of positive control) (HLA-DR7 (human)): 3.69
Relative Binding Score (% of positive control) (HLA-DR2 (human)): 0.28
B2: MET-005 (peptide, from a related filing)
peptide: TFSYVDPVITSISPKYG
